Measured values reported in publication PMC9020777.
Blank lines part the entries; values can stand above or below the binder they belong to.

Legend:
Experiment in all cases: FRET or BRET
Conditions in all cases: remark: other sources report otherwise
[1] = target: mCerulean3-BCL-2 (human), P10415
[2] = target: mCerulean3-BCL-XL (human), Q07817
[3] = target: mCerulean3-BCL-2 (^CBCL-2) (human), P10415
[4] = target: mCerulean3-MCL-1 (human), Q07820
Sequence of mCerulean3-MCL-1 (human), Q07820 (Q07820 whole entry): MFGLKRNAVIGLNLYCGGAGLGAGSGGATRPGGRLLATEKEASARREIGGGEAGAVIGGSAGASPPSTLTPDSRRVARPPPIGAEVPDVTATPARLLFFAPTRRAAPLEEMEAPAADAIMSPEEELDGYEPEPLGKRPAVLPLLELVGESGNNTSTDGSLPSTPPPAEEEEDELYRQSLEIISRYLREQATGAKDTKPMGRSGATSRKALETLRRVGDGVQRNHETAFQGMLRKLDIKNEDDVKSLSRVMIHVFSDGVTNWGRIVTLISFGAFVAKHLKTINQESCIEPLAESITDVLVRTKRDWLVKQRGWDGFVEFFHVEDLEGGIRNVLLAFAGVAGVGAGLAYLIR

Sequence of mCerulean3-BCL-2 (human), P10415 (P10415 whole entry): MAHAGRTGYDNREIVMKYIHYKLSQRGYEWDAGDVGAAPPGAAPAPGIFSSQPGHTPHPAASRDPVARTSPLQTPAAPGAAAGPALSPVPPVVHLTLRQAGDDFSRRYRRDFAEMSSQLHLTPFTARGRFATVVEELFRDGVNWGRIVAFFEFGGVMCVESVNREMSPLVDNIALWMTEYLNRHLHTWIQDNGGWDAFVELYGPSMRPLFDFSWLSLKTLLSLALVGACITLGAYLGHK
Sequence of mCerulean3-BCL-2 (^CBCL-2) (human), P10415 (P10415 whole entry): as above
Sequence of mCerulean3-BCL-XL (human), Q07817 (Q07817 whole entry): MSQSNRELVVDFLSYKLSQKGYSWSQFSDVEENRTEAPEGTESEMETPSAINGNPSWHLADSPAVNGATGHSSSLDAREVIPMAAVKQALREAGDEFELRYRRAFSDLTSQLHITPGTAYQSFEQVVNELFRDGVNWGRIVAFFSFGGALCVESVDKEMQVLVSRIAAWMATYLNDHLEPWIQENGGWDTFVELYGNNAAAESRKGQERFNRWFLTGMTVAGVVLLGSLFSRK

Kd [1]: 4 µM
Kd [2]: 7 µM
B1: Venus-BAD, Q92934 1-168 (natural protein)
chain: MFQIPEFEPSEQEDSSSAERGLGPSPAGDGPSGSGKHHRQAPGLLWDASHQQEQPTSSSHHGGAGAVEIRSRHSSYPAGTEDDEGMGEEPSPFRGRSRSAPPNLWAAQRYGRELRRMSDEFVDSFKKGLPRPKSAGTATQMRQSSSWTRVFQSWWDRNLGRGSSAPSQ

Kd [3]: 8 µM
B2: Venus-NOXA (^VNOXA), Q13794 1-54 (natural protein)
chain: MPGKKARKNAQPSPARAPAELEVECATQLRRFGDKLNFRQKLLNLISKLFCSGT

Kd [1]: 3 µM
Kd [4]: 6 µM
B3: Venus-BIK, Q13323 1-160 (natural protein)
chain: MSEVRPLSRDILMETLLYEQLLEPPTMEVLGMTDSEEDLDPMEDFDSLECMEGSDALALRLACIGDEMDVSLRAPRLAQLSEVAMHSLGLAFIYDQTEDIRDVLRSFMDGFTTLKENIMRFWRSPNPGSWVSCEQVLLALLLLLALLLPLLSGGLHLLLK
